Measured values as given in patent US20080193435A1, “Revascularization of Ischemic Retinal Tissue and Screening Method Therefor” (priority 2005, published 2008).
Entries after “also recorded” stand apart in the source; their conditions may differ.

Experiments:
mouse OIR model = assay: Mouse oxygen-induced retinopathy (OIR) model, whole-mount retina quantification of vascular obliteration and neovascular tuft areas; type: in vivo; design: vascular morphology of the retina / neovascular tuft areas compared to VEGF aptamer treated retinas: dose or concentration left out as unconfirmed; conditions: for effect on area of neovascular tuft formation: single intravitreal injection at P12, various doses; for effect on physiological revascularization of the retina: vs PBS control
Protocol: All animal work adhered to strict protocol guidelines for the humane care and use of animals in research. OIR was induced according to the protocol described by Smith et al. Invest. Opthalmol. Vis. Sci., 1994; 35:101-111. Seven-day old mouse pups and their mothers were transferred from room air to a hyperoxic environment of about 75% oxygen for 5 days, and afterwards returned to room air (normoxia). Exposure to hyperoxic conditions was performed by putting the animal cages within a modified human infant incubator. Oxygen was circulated through the incubator (using an animal anesthesia machine to control flow) and levels were monitored and maintained at 74-75% using an FDA-approved oxygen analyzer (AX-300, Teledyne Analytical Instruments, CA, USA). During the 5 days of hyperoxia, the animals were examined at least three times daily. Unlimited food and water were available to the mothers throughout the experiment. After 5 days, i.e., at postnatal Day 12 (P12), cages were returned to room air.
After the mice were euthanized, enucleated eyes were fixed in 4% paraformaldehyde in PBS for about 10 minutes, and the retinas were dissected by making a circular cut behind the limbus, approximately at the iris root, and then removing the anterior part of the eye. The lens and vitreous were dissected out, and the retina was separated from the scleral and choroidal layers leaving the retina in an eye-cup configuration. Radial relaxing-incisions were made in the retina to allow it to flatten and any remnants of the vitreous or hyaloid were carefully removed from the flattened retina.
For FITC-dextran angiography, animals were anaesthetized by intraperitoneal injections of Ketamine HCl (Ketalar, Parke Davis, UK, 100 mg/kg) in combination with the relaxing agent Xylazine (2 mg/kg). Approximately 300 μl of high molecular weight (2×106 Da) FITC-Dextran (concentration 50 mg/ml, Sigma, St. Louis, Mo.) were injected into the left ventricle and allowed to circulate for approximately two minutes before euthanizing the animal and enucleating the eyes. For isolectin G4 staining, retinas were post-fixed in 4% paraformaldehyde for about 45 minutes, and incubated at room temperature overnight with isolectin GS-IB4 from Griffonia simplicifolia (isolectin GS) that was conjugated to Alexa Fluor 59 4 (Molecular Probes, 1:150 dilution in phosphate buffered saline (PBS)) to afford “isolectin GS-594”. Following 4-5 washes with PBS over a 2 hour span, retinas were mounted as whole-mount preparations on slides with SLOW FADE (Molecular Probes) for subsequent imaging.
Micrographic images were taken using a 4× objective lens with a detector resolution of 512×512 pixels. Extra care was taken to focus just above the inner limiting membrane of the retina using confocal microscopy (BioRad) so that the pre-laminar neovascular tufts became more prominent than the underlying superficial vascular plexus making subsequent quantification of the neovascular tuft areas easier. In most cases, four overlapping images (each representing one retinal quadrant) were acquired from each retina. Using Adobe PHOTOSHOP® 6.0, montages were then created using retinal landmarks such as the optic disc and major vessels to align the images. These montages allowed visualization and quantification of the entire retina. In a few cases where both the obliterated areas and all areas of neovascularization were located toward the center of the retina, single 4× images centered on the optic disk were acquired. While the peripheral retina is not included in its entirety in such images, the relevant OIR-induced changes can be fully seen in these cases. Each individual image was converted to a 2×2 inch size with 300 pixels per inch resolution prior to creating the montage and quantifying the obliteration and neovascular tuft areas. […]

angiogenesis = conditions: previously found; cited from earlier work
[1] = single intravitreal injection at P12, read at P17

| Molecule | effect on area of neovascular tuft formation (mouse OIR model; read at P17) | effect on physiological revascularization of the retina (mouse OIR model; [1]) | angiostatic activity in other models of angiogenesis (angiogenesis) | reduction of tuft formation (mouse OIR model; P19, after two injections (P13 and P16) of lower doses, VEGF aptamer 0.5 mg/eye/injection, 53.9 picomoles) | neovascular tuft areas compared to VEGF aptamer treated retinas (mouse OIR model; T2-TrpRS, intravitreal, molar concentration 10-fold below the aptamer) | inhibition of neovascular tuft formation (mouse OIR model; about 1.25 μg/eye, intravitreal) | vascular morphology of the retina (mouse OIR model; intravitreal at P12, P17) | obliterated areas compared to control retinas (mouse OIR model; intravitreal injection, areas of obliteration equivalent at time of injection) | reduction of obliterated areas at P17 compared to PBS control-injected retinas (mouse OIR model; [1]) |
| --- | --- | --- | --- | --- | --- | --- | --- | --- | --- |
| FL-TrpRS: full-length tryptophan tRNA synthetase (protein, UniProt P23381 1-471, looked up, full-length, full-length tryptophan tRNA synthetase) MPNSEPASLLELFNSIATQGELVRSLKAGNASKDEIDSAVKMLVSLKMSYKAAAGEDYKADCPPGNPAPTSNHGPDATEAEEDFVDPWTVQTSSAKGIDYDKLIVRFGSSKIDKELINRIERATGQRPHHFLRRGIFFSHRDMNQVLDAYENKKPFYLYTGRGPSSEAMHVGHLIPFIFTKWLQDVFNVPLVIQMTDDEKYLWKDLTLDQAYSYAVENAKDIIACGFDINKTFIFSDLDYMGMSSGFYKNVVKIQKHVTFNQVKGIFGFTDSDCIGKISFPAIQAAPSFSNSFPQIFRDRTDIQCLIPCAIDQDPYFRMTRDVAPRIGYPKPALLHSTFFPALQGAQTKMSASDPNSSIFLTDTAKQIKTKVNKHAFSGGRDTIEEHRQFGGNCDVDVSFMYLTFFLEDDDKLEQIRKDYTSGAMLTGELKKALIEVLQPLIAEHQARRKEVTDEIVKEFMTPRKLSFDFQ | some activity at the highest dose | significant enhancement of the revascularization process but only at the higher doses | no angiostatic activity |  |  |  |  |  |  |
| T2-TrpRS: proteolytic fragment of tryptophan tRNA synthetase (TrpRS); SEQ ID NO: 1 (protein, listed as Homo sapiens) SAKGIDYDKLIVRFGSSKIDKELINRIERATGQRPHHFLRRGIFFSHRDMNQVLDAYENKKPFYLYTGRGPSSEAMHVGHLIPFIFTKWLQDVFNVPLVIQMTDDEKYLWKDLTLDQAYSYAVENAKDIIACGFDINKTFIFSDLDYMGMSSGFYKNVVKIQKHVTFNQVKGIFGFTDSDCIGKISFPAIQAAPSFSNSFPQIFRDRTDIQCLIPCAIDQDPYFRMTRDVAPRIGYPKPALLHSTFFPALQGAQTKMSASDPNSSIFLTDTAKQIKTKVNKHAFSGGRDTIEEHRQFGGNCDVDVSFMYLTFFLEDDDKLEQIRKDYTSGAMLTGELKKALIEVLQPLIAEHQARRKEVTDEIVKEFMTPRKLSFDFQ | markedly reduced the area of neovascular tuft formation at P17 in a dose-dependent matter; also recorded: potent inhibitors of neovascular tuft formation; also recorded: strong, dose-dependent angiostatic effect | significantly enhanced revascularization, even at lower doses | potent angiostatic potential | over 75% | slight, but significant reduction | nearly complete inhibition | looked nearly normal | reduced by half | around 40% |
